Measured values from publication PMC7284552.

Tested on: T1, A1S_0316 (putative IclR-type transcription factor) (Acinetobacter baumannii ATCC 17978), ORF:5d858888
T1 sequence: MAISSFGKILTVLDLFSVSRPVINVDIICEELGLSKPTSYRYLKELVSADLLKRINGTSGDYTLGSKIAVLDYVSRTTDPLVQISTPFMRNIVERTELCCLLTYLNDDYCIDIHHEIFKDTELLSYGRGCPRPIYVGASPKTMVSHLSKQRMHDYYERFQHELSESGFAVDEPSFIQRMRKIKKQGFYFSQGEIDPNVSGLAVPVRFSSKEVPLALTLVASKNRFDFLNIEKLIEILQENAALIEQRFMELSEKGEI
Experiment: competition
Settings: EMSA: 5 min at 37 C, 5% native PAGE (40:1), 100 V 1.5 h; binding buffer, salt and pH not stated

For “GGCAAGCGAAACAAAGAAGTTGTTCATATTTGCTAGTTGGGTAAAAAATTACCGAATTACAACGGAAATTGTAAGTAATTTTGTCAATAATTTACTTGATTAAAATTATCAAGCACTTGGAAAGTCTATCAAGTGTTTGTATGATTCAAATGTGAATAGCTTAAAAATAATACTGGGGTAAAAAAATATCTCAGGGGCCAATAAATTTAGGCTGAGCTTGAACAACAATTGTTATCTCTGGAGGATATCCATGAAATTGAGTCGTATTGCACTTGCTACTATGCTTGTTGCTGCTCCATT (double strand) [AbOmpA promoter (AbOmpAp), -231 to +100]”, the binding was “binds”.
